From publication PMC2275136

Target: p53 (purified recombinant) (UniProt P04637 1-393)
Test: EMSA

Sequence of p53 (purified recombinant) (P04637 whole entry): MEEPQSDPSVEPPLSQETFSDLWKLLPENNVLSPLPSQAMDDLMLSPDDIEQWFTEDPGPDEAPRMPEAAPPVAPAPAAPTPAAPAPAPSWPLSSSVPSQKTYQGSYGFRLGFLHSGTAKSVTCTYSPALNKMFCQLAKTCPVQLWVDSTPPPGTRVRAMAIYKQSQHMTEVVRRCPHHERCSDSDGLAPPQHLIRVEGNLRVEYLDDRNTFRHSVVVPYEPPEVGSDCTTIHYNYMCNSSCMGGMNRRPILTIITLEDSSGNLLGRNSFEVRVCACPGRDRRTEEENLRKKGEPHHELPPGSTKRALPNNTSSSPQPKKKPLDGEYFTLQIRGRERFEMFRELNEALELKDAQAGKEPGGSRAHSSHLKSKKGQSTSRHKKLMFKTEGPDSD

B1: p21 promoter p53 consensus duplex (dsDNA)
DNA 1: TTGAACATGTCCCAACATGTTGA
DNA 2: TCAACATGTTGGGACATGTTCAA
binding result: binds
